Reference: patent publication US20070190054A1 (published 2007)

Biological target: T1, C3b (purified; species not stated in Examples 12, 13, 19, 20) (Homo sapiens (Human), UniProt P01024 23-667; P01024 749-1663, The two chains are disulfide-linked. The internal thioester of the alpha' chain (Cys-Gln) is broken in C3b. Natural glycosylation is present. The protein carries an Alexa488 label in the …)
T1 construct: also called complement C3b; C3b-A488
Experiment: SPR (Biacore 2000), C3b amine-coupled to a CM5 chip, CRIg-Fc injected

B1: murine CRIg-Fc fusion protein (Fc fusion)
chain: HPTLKTPESVTGTWKGDVKIQCIYDPLRGYRQVLVKWLVRHGSDSVTIFLRDSTGDHIQQAKYRGRLKVSHKVPGDVSLQINTLQMDDRNHYTCEVTWQTPDGNQVIRDKIIELRVRKYNPPRINTEAPTTLHSSLEATTIMSSTSDLTTNGTGKLEETIAGSGRNLPIFAIIFIISLCCI
notes: Produced in CHO cells; also called muCRIg-Fc; MuCRIg Fc; not shown: hinge, CH2 and CH3 domains of murine IgG1
- Kd: 250 nM
